Like-named read-outs stand apart in the source and are kept apart here.

Take “PmCOX (Penaeus monodon cyclooxygenase): N79Q”: where the note is “N-glycosylation at N79”, the enzymatic_activity result is recorded as “no change, secreted PGE2 8.65 nM vs 7.40 nM wild type (40 uM ARA)” and the expression_or_secretion entry was “no change”.

Regarding “PmCOX (Penaeus monodon cyclooxygenase): N79Q/N170Q/N424Q triple mutant”, the enzymatic_activity result (N-glycosylation at N79) was “abolishes, secreted PGE2 2.23 nM vs 7.40 nM wild type (empty vector 2.68 nM)”; the enzymatic_activity result (N-glycosylation at N170) is recorded as “abolishes, secreted PGE2 2.23 nM vs 7.40 nM wild type (empty vector 2.68 nM)”; the enzymatic_activity result (N-glycosylation at N424) is “abolishes, secreted PGE2 2.23 nM vs 7.40 nM wild type (empty vector 2.68 nM)”. Further, the expression_or_secretion result is on record as “decreases” (N-glycosylation at N79), “decreases” (N-glycosylation at N170) and “decreases” (N-glycosylation at N424).

Take “PmCOX (Penaeus monodon cyclooxygenase): N170Q”: the enzymatic_activity result (N-glycosylation at N170) is on record as “abolishes, secreted PGE2 2.45 nM vs 7.40 nM wild type (empty vector 2.68 nM)”.

On to “PmCOX (Penaeus monodon cyclooxygenase): N424Q”, for which, under “N-glycosylation at N424”, the enzymatic_activity entry is recorded as “abolishes, secreted PGE2 2.79 nM vs 7.40 nM wild type (empty vector 2.68 nM)”.
